# Data taken from the supplement of paper PMC9112550, “Optimization of the antimicrobial peptide Bac7 by deep mutational scanning” (BMC Biology, 2022).
# Test system: Escherichia coli TOP10
# Test: shrunken log2 fold change of peptide-encoding DNA abundance (4.5 h post-induction vs induction); higher = less antimicrobial activity (less host growth inhibition)
# Details: time post-induction: 4.5 h; library: site-saturation at positions 5, 18, 19, 20
# 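Note: peptides expressed intracellularly from a pBAD plasmid library in pooled LB shake-flask culture, induced with 0.3% L-arabinose, DNA abundance read by NGS, three biological replicates, DESeq2 with apeglm shrinkage.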
row,Sequence,shrunken log2 fold change
1,RRIRTRPPRLPRPRPRPATAPRP,0.362
2,RRIRSRPPRLPRPRPRPCGWPRP,0.148
3,RRIRGRPPRLPRPRPRPCFEPRP,0.629
4,RRIRLRPPRLPRPRPRPQSHPRP,-0.349
5,RRIRKRPPRLPRPRPRPFIWPRP,-0.0554
6,RRIRARPPRLPRPRPRPAHEPRP,0.128
7,RRIRERPPRLPRPRPRPPPRPRP,0.837
8,RRIRERPPRLPRPRPRPTKCPRP,0.0642
9,RRIRCRPPRLPRPRPRPRLRPRP,0.925
10,RRIRHRPPRLPRPRPRPCQMPRP,-0.0239
11,RRIRHRPPRLPRPRPRPMNAPRP,-0.282
12,RRIRGRPPRLPRPRPRPTCIPRP,0.351
13,RRIRIRPPRLPRPRPRPSHGPRP,0.09
14,RRIRPRPPRLPRPRPRPLKVPRP,-0.107
15,RRIRNRPPRLPRPRPRPQRKPRP,0.103
16,RRIRDRPPRLPRPRPRPSEIPRP,-0.167
17,RRIRVRPPRLPRPRPRPMLGPRP,-0.0049
18,RRIRIRPPRLPRPRPRPHPAPRP,-0.516
19,RRIRFRPPRLPRPRPRPETCPRP,-0.0911
20,RRIRFRPPRLPRPRPRPPLGPRP,1.33
21,RRIRIRPPRLPRPRPRPYISPRP,-0.0173
22,RRIRFRPPRLPRPRPRPPTRPRP,0.748

row,Sequence,shrunken log2 fold change
1,RRIRSRPPRLPRPRPRPKGSPRP,0.0118
2,RRIRYRPPRLPRPRPRPFLAPRP,-0.649
3,RRIRARPPRLPRPRPRPHKIPRP,-0.0893
4,RRIRDRPPRLPRPRPRPMTRPRP,-0.113
5,RRIRNRPPRLPRPRPRPGCQPRP,-0.108
6,RRIRSRPPRLPRPRPRPDMKPRP,-0.43
7,RRIRVRPPRLPRPRPRPITPPRP,0.12
8,RRIRYRPPRLPRPRPRPRTVPRP,-0.0278
9,RRIRFRPPRLPRPRPRPDVYPRP,-0.32
10,RRIRTRPPRLPRPRPRPAIRPRP,0.00208
11,RRIRIRPPRLPRPRPRPCWRPRP,0.157
12,RRIRMRPPRLPRPRPRPGPSPRP,1.23
13,RRIRGRPPRLPRPRPRPETEPRP,2.25
14,RRIRWRPPRLPRPRPRPTVMPRP,-0.374
15,RRIRRRPPRLPRPRPRPSWPPRP,0.0963
16,RRIRPRPPRLPRPRPRPDSPPRP,0.0152
17,RRIRARPPRLPRPRPRPYTVPRP,-0.306
18,RRIRSRPPRLPRPRPRPYLSPRP,-0.062
19,RRIRVRPPRLPRPRPRPLDDPRP,0.00726
20,RRIRGRPPRLPRPRPRPMCEPRP,2.46
21,RRIRRRPPRLPRPRPRPIMDPRP,0.01
22,RRIRDRPPRLPRPRPRPYYDPRP,-0.621

row,Sequence,shrunken log2 fold change
1,RRIRNRPPRLPRPRPRPQWCPRP,-0.0662
2,RRIRARPPRLPRPRPRPSAYPRP,0.0396
3,RRIRLRPPRLPRPRPRPQTNPRP,-0.497
4,RRIRARPPRLPRPRPRPAPFPRP,0.392
5,RRIRTRPPRLPRPRPRPKGHPRP,0.208
6,RRIRTRPPRLPRPRPRPPFAPRP,0.195
7,RRIRTRPPRLPRPRPRPDKRPRP,-0.0389
8,RRIRPRPPRLPRPRPRPNTHPRP,-0.00792
9,RRIRHRPPRLPRPRPRPSQVPRP,0.176
10,RRIRCRPPRLPRPRPRPPSGPRP,0.233
11,RRIRERPPRLPRPRPRPPYGPRP,-0.244
12,RRIRNRPPRLPRPRPRPCYQPRP,-0.32
13,RRIRTRPPRLPRPRPRPEHCPRP,-0.0755
14,RRIRVRPPRLPRPRPRPHSNPRP,-0.505
15,RRIRNRPPRLPRPRPRPTLAPRP,0.556
16,RRIRFRPPRLPRPRPRPSLVPRP,-0.167
17,RRIRDRPPRLPRPRPRPNVDPRP,0.0276
18,RRIRYRPPRLPRPRPRPVGTPRP,0.238
19,RRIRWRPPRLPRPRPRPCEPPRP,-0.27
20,RRIRLRPPRLPRPRPRPCHMPRP,-0.0107
21,RRIRDRPPRLPRPRPRPAGFPRP,0.0112
22,RRIRYRPPRLPRPRPRPGAEPRP,0.227

row,Sequence,shrunken log2 fold change
1,RRIRKRPPRLPRPRPRPTINPRP,-0.184
2,RRIRCRPPRLPRPRPRPRRRPRP,0.496
3,RRIRIRPPRLPRPRPRPNPLPRP,-0.0976
4,RRIRKRPPRLPRPRPRPRTNPRP,0.238
5,RRIRDRPPRLPRPRPRPKMNPRP,-0.366
6,RRIRERPPRLPRPRPRPVNDPRP,-0.0156
7,RRIRPRPPRLPRPRPRPIMCPRP,-0.221
8,RRIRQRPPRLPRPRPRPDRGPRP,0.0176
9,RRIRPRPPRLPRPRPRPAGSPRP,0.206
10,RRIRMRPPRLPRPRPRPDTGPRP,0.112
11,RRIRERPPRLPRPRPRPRCWPRP,0.014
12,RRIRWRPPRLPRPRPRPNIAPRP,-0.121
13,RRIRTRPPRLPRPRPRPTIYPRP,-0.409
14,RRIRLRPPRLPRPRPRPDTDPRP,0.0475
15,RRIRGRPPRLPRPRPRPNRWPRP,0.617
16,RRIRFRPPRLPRPRPRPSFPPRP,-0.38
17,RRIRQRPPRLPRPRPRPASKPRP,0.0503
18,RRIRRRPPRLPRPRPRPAMNPRP,0.0496
19,RRIRYRPPRLPRPRPRPQVHPRP,-0.0163
20,RRIRVRPPRLPRPRPRPQQMPRP,0.0393
21,RRIRGRPPRLPRPRPRPNSYPRP,-0.0855
22,RRIRIRPPRLPRPRPRPEPIPRP,0.185

row,Sequence,shrunken log2 fold change
1,RRIRMRPPRLPRPRPRPLPAPRP,2.13
2,RRIRKRPPRLPRPRPRPHWSPRP,0.139
3,RRIRKRPPRLPRPRPRPRLPPRP,0.768
4,RRIRMRPPRLPRPRPRPWGKPRP,0.0449
5,RRIRERPPRLPRPRPRPDHCPRP,-0.0389
6,RRIRRRPPRLPRPRPRPDPFPRP,0.1
7,RRIRNRPPRLPRPRPRPAIWPRP,0.13
8,RRIRERPPRLPRPRPRPAHWPRP,0.339
9,RRIRDRPPRLPRPRPRPLYCPRP,-0.333
10,RRIRLRPPRLPRPRPRPDPNPRP,0.168
11,RRIRIRPPRLPRPRPRPCKRPRP,0.0279
12,RRIRGRPPRLPRPRPRPHVSPRP,0.396
13,RRIRWRPPRLPRPRPRPQHHPRP,-0.475
14,RRIRIRPPRLPRPRPRPDNRPRP,-0.00277
15,RRIRRRPPRLPRPRPRPTDDPRP,0.741
16,RRIRKRPPRLPRPRPRPWPPPRP,0.56
17,RRIRRRPPRLPRPRPRPSDGPRP,0.0219
18,RRIRVRPPRLPRPRPRPCVTPRP,-0.0293
19,RRIRTRPPRLPRPRPRPISAPRP,0.259
20,RRIRQRPPRLPRPRPRPWDPPRP,-0.327
21,RRIRLRPPRLPRPRPRPWHCPRP,-0.0686
